Laboratory results taken from patent US20250340649A1 (RUTGERS THE STATE UNIVERSITY OF NEW JERSEY, published 2025).
Substitutions are numbered along the chain they refer to.

B1: F4 anti-HER2 VHH (VHH)
VHH: QVQLQESGGGLVQAGGSLKLSCAASGRTLSAYVVGWFRQAPGKERESVAAIGWSSRSPYYPDSVKGRFTISEDNTKNTVYLQMNSLKPDDTAVYYCAADSYPRRWDRESDFGSWGQGTQVTVSS
B2: D6 anti-HER2 VHH (VHH)
VHH: B1 VHH with K19T, L29F, A31T, S54A, R56N, P61A, E72R, N84K
B3: H7 anti-HER2 VHH (VHH)
VHH: B1 VHH with K19R, R27H, A31T, G35A, S55T, P61A
B4: F2 anti-HER2 VHH (VHH)
VHH: B1 VHH with K43R, S55T, R56H, P58V, P61A, E72R, K76E, Y101S
B5: E9 anti-HER2 VHH (VHH)
VHH: B1 VHH with L11S, K43R, S55T, R56H, P58V, P61A, E72R, K76E, Y101S
B6: A3 (VHH)
VHH: QVQLQESGGGLVQAGGSLRISCAASGRTSDLFPVGWFRQAPGKEREIVAAIRWSGGVIGYGDPVKGRFTISTDNAKNTVYLQMNSLKPEDTAVYYCAAGPRESTVTWNYWGQGTHVTVSS
notes: not the anti-CD16a clone A3; also called A3 anti-HER2 VHH
B7: E5C1 BiKE (BiKE: HER2/CD16a) (bispecific antibody)
chain: QVQLQESGGGLVQAGGSLRLDCAASGRTLSSYVVGWFRQAPGKEREVVAAIGWSRTSTFYTDSVKGRFTISRDNTENTVYLQMNSLKPGDTAVYYCAADSSPRRWDRESDFGSWGQGTQVTVSSPSGQAGAAASESLFVSNHASQVQLQESGGGLVQAGGSLRLSCAASGRTFRLYRMGWFRQAPGKEREFVGSIKMIDGSTLYGDPVKGRFTISRDNTKFMAYLQMNSLKPEDTAVYYCASVSRVTGSYDSWGQGTQVTVSSWELQGSEQKLISEEDLHHHHHHHHHHHH
notes: Monomer by LC-MS; also called BIKE: CD16a/HER2
B8: C9 (VHH)
VHH: QVQLQESGGGLVQAGGSLRLSCAASGRTVSRYSMGWFRQAPGKEREFVAAIAWFGGWPYYADSVKGRFTISRDNAKNTVYLQMNSLKPEDTAVYYCAARQWARTWDYWGQGTQVTVSS
notes: also called C9 anti-HER2 VHH

Key:
Bovine serum albumin = target: T1, Bovine serum albumin (bovine, UniProt P02769 25-607); assay: ELISA, periplasmic extract on coated antigen, anti-HA-HRP
T1 construct: Control antigen; also called BSA
Excerpt: (§1) FIGS. 4A-4B. FIG. 4A) PBMCs were isolated using Ficoll-Paque method. Then, the RNAs were extracted, cDNA library was generated, genes amplified, and then cloned into pMECS-GG phagemids. The phagemids were used in phage display and the screened candidates were used to infect TG1 bacteria. Colonies were selected, grown, lysed, and the lysates removed. FIG. 4B) The lysates were then used in ELISA to screen for VHHs with the highest affinity to HER2 and with negligible binding to HER1, HER3, and HER4. Bovine serum albumin (BSA) and skim milk were used as controls.
(§2) The next day, each well was washed three times with washing buffer (DPBS+0.1% Tween 20) and then incubated with blocking buffer (2% skimmed milk) for 2 h at RT to block the free binding sites. Next, blocking buffer was replaced with 100 μL of periplasmic extract from above and incubated for 1 h at RT while shaking at 700 rpm. Each well was washed six times with washing buffer (DPBS+0.1% Tween 20) followed by addition of 100 μL HRP Anti-HA tag antibody (1:10000 dilution) and incubation for 1 h at RT while shaking at 700 rpm. Each well was washed again six times, followed by addition of 50 μL 1-Step™ Turbo TMB-ELISA substrate solution at incubation at RT for 15 min (without shaking and at dark). The reaction was stopped by adding 50 μL of stop solution ([…] sulfuric acid) and the plate was read at 450 nm using 630 nm as a reference (450/630 nm).

HER1 = target: T2, HER1 (human, UniProt P00533 25-645); assay: as above
T2 construct: The text says only 'HER1'; also called Recombinant human EGFR protein (Fc Chimera), Abcam ab155726; Fc part of the bought chimera not given
Excerpt: as §1, §2

HER3 = target: T3, HER3 (human, UniProt P21860 20-643, limits assumed); assay: as above
T3 construct: also called Recombinant Human ErbB 3 protein, Abcam ab196072
Excerpt: as §1, §2

[1] = target: T4, HER2 on the surface of HER2+ cancer cells (BT474, SKOV-3) (human, UniProt P04626 23-1255); assay: flow cytometry on BT-474 cells (HER2+), 100 nM binding sites
T4 construct: whole, on cells; also called human epidermal growth factor receptor 2
Experimental: (§3) OVASC-1 is an ascites-derived epithelial ovarian cancer cells obtained from a patient with advanced metastatic disease (11, 12). The expressed VHHs were then incubated with HER2⁺ (BT474, JIMT-1, and SKOV-3) and HER2⁻ (MDA-MB-231) cancer cell lines. Approximately 10⁶ cells were counted and washed using DPBS-1% FBS. […] After washing, FITC-conjugated anti-Human IgG or anti-Histag antibody were added and incubated on ice for 60 min. Cells were washed three times and then analyzed using Beckman-Coulter Gallios flow cytometer at Rutgers Flow cytometry core facility.
(§4) In the next step, the ability of the VHHs to recognize and bind to HER2 on the surface of HER2+ cancer cells was evaluated. […] MDA-MB-231 and OVASC-1 (HER2⁻) cancer cells were used as negative controls.

[2] = target: T4, HER2 on the surface of HER2+ cancer …; assay: flow cytometry on SKOV-3 cells (HER2+), 100 nM binding sites
Experimental: as §3, §4

[3] = target: T5, HER2 protein (coated on ELISA plate) (human, UniProt P04626 23-652, limits assumed); assay: ELISA, periplasmic extract on coated antigen, anti-HA-HRP
T5 construct: also called HER2 antigen
Excerpt: as §1, §2

[4] = target: T6, Biotinylated Human Fc gamma RIIIA/CD16a (F176) Protein, Avitag, His Tag (Acrobiosystems CDA-H82E8) (human, UniProt P08637 17-208, biotinylated (Avitag)); assay: BLI (Octet), biotinylated CD16a on streptavidin sensor, BiKE 1.875-60 nM
T6 construct: also called biotinylated CD16a; CD16a antigen
Experimental: (§5) An Octet® Streptavidin (SA) Biosensor was soaked for at least 10 min in DPBS supplemented with 0.1% Casein, biotinylated CD16a, CD16b-NA1, CD16b-NA2, and HER2 antigens were loaded onto the streptavidin (SA) biosensor until 1 nm shift was reached. Next, the sensor was dipped into the washing buffer (DPBS+0.05% Tween 20+0.1% Casein) for 2 min to reach the baseline. […] Then, in the dissociation step, sensors were dipped into the washing buffer for 5 min to acquire data (Table 5). The data were then analyzed using Octet Data Analysis HT 11.1 software. The sensorgrams were subtracted from the reference and fitted into 1:1 binding model for data analysis. Finally, the affinity and kinetics were analyzed using “Association and Dissociation”.

[5] = target: T6, Biotinylated Human Fc gamma RIIIA/CD16a …; assay: ELISA, biotinylated CD16a on streptavidin plate, tenfold dilutions 0-1000 nM, anti-cMyc-HRP
Experimental: For ELISA, 50 μL of biotinylated CD16a was added to the streptavidin-coated plate and incubated for 45 min at RT. […] Next, 100 μl anti-cMyc tag HRP conjugated secondary antibody (1:10,000 dilutions) was added. Finally, after washing, the substrate was added for color development, and the plate was read using OD of 450 nm.

[6] = target: T4, HER2 on the surface of HER2+ cancer …; assay: flow cytometry, SKOV-3 (HER2+) cells, tenfold dilutions 0.001-1000 nM
[7] = target: T7, CD16a on NK92 (CD16+) cells (human, UniProt P08637 17-254); assay: flow cytometry, fixed haNK92 (CD16+) cells, tenfold dilutions, anti-histag-FITC
T7 construct: whole, on cells; also called NK92 cells (CD16a+); haNK92 cells (CD16a+)
Experimental: First, CD16a+NK92 was harvested and washed once using Dulbecco's phosphate-buffered saline (DPBS) supplemented with 2% FBS (2% DPBS-FBS). Next, all the cells were fixed using 3.7% paraformaldehyde for 20 min at RT, followed by washing twice. […] Following washing three times, the secondary antibody, anti-Histag antibody FITC labeled, was added. After washing, the samples were run on Cytoflex using FL1 channel.

[8] = target: T8, Biotinylated Human Fc gamma RIIIB/CD16b (NA2) Protein, His, Avitag (Acrobiosystems CDB-H82Ea) (human, UniProt O75015 17-200, biotinylated (Avitag)); assay: BLI (Octet), biotinylated CD16b-NA2 on streptavidin sensor, BiKE 1.875-60 nM
T8 construct: NA2 allele; also called CD16-NA2
Experimental: as §5

[9] = target: T9, Biotinylated Human Fc gamma RIIIB/CD16b (NA1) Protein, His, Avitag (Acrobiosystems CDB-H82E4) (human, UniProt O75015 17-200, biotinylated (Avitag)); assay: BLI (Octet), biotinylated CD16b-NA1 on streptavidin sensor, BiKE 1.875-60 nM
T9 construct: NA1 allele; also called CD16b-NAI
Experimental: as §5

[10] = target: T10, Biotinylated Human Her2/ErbB2 Protein, His, Avitag (AcroBiosystem HE2-H82E2) (human, UniProt P04626 23-652, biotinylated (Avitag)); assay: ELISA on HER2, tenfold dilutions 0-1000 nM; the HER2 form is not stated for this ELISA, Table 17 lists only the biotinylated HER2
T10 construct: Bought protein; Loaded on streptavidin sensors for BLI; also called biotinylated HER2; HER2 antigen

T1 sequence (P02769 25-607 limits assumed): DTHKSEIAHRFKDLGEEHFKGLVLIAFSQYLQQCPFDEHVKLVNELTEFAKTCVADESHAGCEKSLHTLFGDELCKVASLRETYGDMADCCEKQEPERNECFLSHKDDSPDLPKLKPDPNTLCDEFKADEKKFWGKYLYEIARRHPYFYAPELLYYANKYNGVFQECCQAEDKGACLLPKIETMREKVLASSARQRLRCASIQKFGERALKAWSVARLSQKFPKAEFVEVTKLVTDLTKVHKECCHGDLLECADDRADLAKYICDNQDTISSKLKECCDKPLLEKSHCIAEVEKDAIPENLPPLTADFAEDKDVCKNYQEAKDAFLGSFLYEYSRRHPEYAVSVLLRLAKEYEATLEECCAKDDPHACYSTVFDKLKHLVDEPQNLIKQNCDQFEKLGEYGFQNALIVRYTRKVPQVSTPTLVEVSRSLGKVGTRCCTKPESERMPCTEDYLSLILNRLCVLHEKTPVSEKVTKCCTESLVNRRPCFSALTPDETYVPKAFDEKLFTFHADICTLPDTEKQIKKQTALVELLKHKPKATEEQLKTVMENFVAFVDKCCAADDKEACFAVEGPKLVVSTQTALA
T6 sequence (P08637 17-208 limits assumed): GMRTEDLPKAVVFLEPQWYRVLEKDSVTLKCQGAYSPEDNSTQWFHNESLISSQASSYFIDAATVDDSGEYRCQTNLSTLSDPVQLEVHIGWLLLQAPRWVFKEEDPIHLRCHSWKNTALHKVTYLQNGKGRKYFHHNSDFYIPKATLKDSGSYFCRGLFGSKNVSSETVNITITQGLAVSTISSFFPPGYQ
T8 sequence (O75015 17-200 N65S limits assumed): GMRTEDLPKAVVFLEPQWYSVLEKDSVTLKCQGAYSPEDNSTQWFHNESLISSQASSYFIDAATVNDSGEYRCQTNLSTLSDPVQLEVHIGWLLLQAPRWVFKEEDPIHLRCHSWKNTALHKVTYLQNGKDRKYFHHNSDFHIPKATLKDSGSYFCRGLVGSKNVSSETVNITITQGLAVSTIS
T9 sequence (O75015 other isoform, or with tags, fused parts or gaps limits assumed): as the sequence (O75015 17-200 N65S limits assumed) above, with S20R, S49N, N66D, I90V counted along it
T7 sequence (P08637 17-254 F176V): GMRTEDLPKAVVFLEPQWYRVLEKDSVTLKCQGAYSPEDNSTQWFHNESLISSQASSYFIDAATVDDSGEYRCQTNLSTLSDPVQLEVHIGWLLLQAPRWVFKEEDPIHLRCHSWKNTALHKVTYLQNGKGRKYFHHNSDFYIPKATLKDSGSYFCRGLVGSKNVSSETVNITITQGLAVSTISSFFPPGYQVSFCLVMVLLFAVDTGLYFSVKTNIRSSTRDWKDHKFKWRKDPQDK

Row | Binder | binding result (Bovine serum albumin) | binding result (HER1) | binding result (HER3) | FITC+ (%) [1] | FITC- (%) [1] | Mean (MFI) [1] | FITC+ (%) [2] | FITC- (%) [2] | Mean (MFI) [2] | other results
1 | B1 | no binding (tested: extract, conc. not given) | no binding (tested: extract, conc. not given) | no binding (tested: extract, conc. not given) | 98.5% | 1.45% | 99500 | 93.3% | 6.51% | 86400 | –
2 | B2 | no binding (tested: extract, conc. not given) | no binding (tested: extract, conc. not given) | no binding (tested: extract, conc. not given) | 98.1% | 1.86% | 96100 | 94.6% | 5.24% | 89400 | –
3 | B3 | no binding (tested: extract, conc. not given) | no binding (tested: extract, conc. not given) | no binding (tested: extract, conc. not given) | 98.3% | 1.72% | 100000 | 94.8% | 5.02% | 99900 | –
4 | B4 | no binding (tested: extract, conc. not given) | no binding (tested: extract, conc. not given) | no binding (tested: extract, conc. not given) | 98.6% | 1.42% | 99500 | 93.1% | 6.68% | 100000 | –
5 | B5 | no binding (tested: extract, conc. not given) | no binding (tested: extract, conc. not given) | no binding (tested: extract, conc. not given) | 98.2% | 1.85% | 97900 | 93.1% | 6.76% | 88100 | –
6 | B6 | no binding (tested: extract, conc. not given) | no binding (tested: extract, conc. not given) | no binding (tested: extract, conc. not given) | – | – | – | – | – | – | binding result [3]: binds
7 | B7 | – | – | – | – | – | – | – | – | – | Kd [4]: 2.7 nM; koff [4]: 0.00051 s⁻¹; kon [4]: 189000 M⁻¹ s⁻¹; EC50 (read off the curve) [5]: ~0.3 nM; EC50 (read off the curve) [6]: ~1 nM; EC50 (read off the curve) [7]: ~1 nM; Kd [8]: 6.71 nM; koff [8]: 0.000946 s⁻¹; kon [8]: 140000 M⁻¹ s⁻¹; Kd [9]: 1730 nM; koff [9]: 0.0743 s⁻¹; kon [9]: 42900 M⁻¹ s⁻¹; EC50 (read off the curve) [10]: ~0.4 nM
8 | B8 | no binding (tested: extract, conc. not given) | no binding (tested: extract, conc. not given) | no binding (tested: extract, conc. not given) | – | – | – | – | – | – | binding result [3]: binds
